Data on 3 molecules can be found in US20240092919A1 (Ablynx, published 2024).

Assay [1] deals with T1, human CD33 on cells (human, UniProt P20138 18-364).
T1 construct: whole, on cells; also called CHO hu CD33; huCD33
The experiment in a line: flow cytometry on CHO cells transfected with human CD33. (A flow cytometer gives signals particle by particle.)

The target of assay [2] is T2, cynomolgus CD33 on cells (cynomolgus).
T2 construct: whole, on cells; also called CHO cy CD33; cyCD33
The experiment in a line: flow cytometry on CHO cells transfected with cynomolgus CD33.

Assay [3] addresses T3, cynomolgus TCR on primary cynomolgus T cells (cynomolgus).
T3 construct: whole, on cells; also called cyno TCRαβ
The experiment in a line: flow cytometry competition on primary cynomolgus T cells; competitor Flag-tagged T017000623 at EC30. The protocol:
(§1) T cells (human T cells obtained as described in Example 3 and cyno T cells purchased from LPT laboratory, Germany) were thawed and counted on the day of the assay and diluted to a concentration of 1E+06 cells/mL, before adding 75 μL to the wells of a V-bottom 96-well plate (Greiner, cat no 651180). Cells were washed once with cold FACS buffer, before adding 25 μL Nb and 25 μL competitor to the wells. […] Cells were resuspended and plates were incubated at 4° C. for 90 minutes, after which plates were washed twice in cold FACS buffer. […] Plates were washed twice in cold FACS buffer. […] Plates were washed twice in cold FACS buffer. Cells were resuspended in 55 μL 1/1000 diluted Propidium Iodide (Sigma-Aldrich, cat no P4170) in FACS buffer before acquiring data on the MACSQuant X (Miltenyi biotec).

The target of assay [4] is T4, Cynomolgus TCR(AEA41865/AEA41866)-zipper protein (cynomolgus).
T4 construct: also called cyTCR-zipper; cyTCR(AEA41865)-zipper
T4 TCR alpha: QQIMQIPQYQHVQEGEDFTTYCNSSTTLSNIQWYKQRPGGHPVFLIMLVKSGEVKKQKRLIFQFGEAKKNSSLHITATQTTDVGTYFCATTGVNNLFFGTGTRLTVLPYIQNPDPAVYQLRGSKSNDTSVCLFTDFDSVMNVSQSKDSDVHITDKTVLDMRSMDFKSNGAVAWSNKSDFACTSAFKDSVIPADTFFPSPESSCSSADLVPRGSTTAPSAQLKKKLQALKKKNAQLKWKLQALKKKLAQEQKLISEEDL
T4 TCR beta: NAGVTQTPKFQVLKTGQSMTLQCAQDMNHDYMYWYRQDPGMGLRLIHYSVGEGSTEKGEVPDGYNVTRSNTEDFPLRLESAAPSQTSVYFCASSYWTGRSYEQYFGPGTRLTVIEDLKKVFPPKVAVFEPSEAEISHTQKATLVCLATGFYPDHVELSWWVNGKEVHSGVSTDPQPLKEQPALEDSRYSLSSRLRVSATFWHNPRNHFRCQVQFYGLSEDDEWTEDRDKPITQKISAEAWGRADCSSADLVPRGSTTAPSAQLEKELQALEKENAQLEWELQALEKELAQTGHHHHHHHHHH
The experiment in a line: SPR, ProteOn XPR36; TCR-zipper protein immobilised by amine coupling. On the procedure:
Purified ISVDs were injected for 2 minutes (flow rate 45 μL/min) at different concentrations (between 0.2 nM and 200 nM) and dissociation was followed for 900 s. Regeneration was performed by injecting 3 M MgCl₂ for 3 minutes (flow rate 90 μL/min). […] Processed sensorgrams were analyzed based on the 1:1 interaction model (Langmuir binding model) using ProteOn Manager 3.1.0 (Version 3.1.0.6) software.
(SPR reads the build-up and loss of mass on a sensor chip optically.)

Assay [5] has as its target T5, cyno GPC3 (recombinant, in house produced) (cynomolgus, UniProt A0A2K5VK50 24-558).
T5 construct: also called cynomolgus Glypican-3
The experiment in a line: SPR, ProteOn XPR36; GPC3 captured on anti-His antibody. On the procedure:
(§2) Recombinant GPC3 proteins were captured on a GLC Sensor Chip (Biorad) immobilized with THE anti-His antibody (Genscript, cat no ABIN387699) via amine coupling, using EDC and NHS chemistry (running buffer: HBS-EP+, pH7.4). Purified ISVDs were injected for 2 minutes (flow rate 45 μL/min) at different concentrations (between 0.3 nM and 1000 nM) and dissociation was followed for 900 s. Regeneration was performed by injecting 10 mM Glycine-HCl (pH 1.5) for 1 minute (flow rate 45 μL/min). […] Processed sensorgrams were analyzed based on the 1:1 interaction model (Langmuir binding model) using ProteOn Manager 3.1.0 (Version 3.1.0.6) software.

Assay [6] deals with T6, human GPC3 (recombinant) (human, UniProt P51654 25-559).
T6 construct: also called human Glypican-3
The assay is described as above. On the procedure:
as §2

For assay [7], the target named is T3, cynomolgus TCR on primary cynomolgus T …. The experiment in a line: cell-based or functional assay.
Assay [8] deals with T7, human TCR on primary human T cells (human, UniProt P01848 1-140; P01850 1-176).
T7 TCR alpha (looked up): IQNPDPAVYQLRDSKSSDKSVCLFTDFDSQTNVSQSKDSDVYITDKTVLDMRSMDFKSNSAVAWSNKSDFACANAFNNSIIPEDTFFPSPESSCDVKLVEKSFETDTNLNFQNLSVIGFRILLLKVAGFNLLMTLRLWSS
T7 TCR beta (looked up): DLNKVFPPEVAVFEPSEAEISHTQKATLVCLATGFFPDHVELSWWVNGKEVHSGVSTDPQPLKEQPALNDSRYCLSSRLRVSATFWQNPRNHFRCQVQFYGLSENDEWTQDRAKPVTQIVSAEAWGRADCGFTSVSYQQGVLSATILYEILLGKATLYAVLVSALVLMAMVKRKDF
The experiment in a line: cell-based or functional assay.

The target of assay [9] is T7, human TCR on primary human T cells. The experiment in a line: flow cytometry competition on primary human T cells; competitor Flag-tagged T017000624 at EC30. The protocol:
as §1

The target in assay [10] is T8, cyno GPC3 on CHO-Flp-In cells (cynomolgus, UniProt A0A2K5VK50 24-553).
T8 construct: whole, on cells; also called CHO cyGPC3
The experiment in a line: flow cytometry, binding to CHO-Flp-In cells overexpressing cyno GPC3.

The target of assay [11] is T9, human GPC3 on cells (human, UniProt P51654 25-554).
T9 construct: whole, on cells; also called CHO huGPC3; GPC3 on Huh-7, HepG2, NCI-H661, MKN-45, NCI-H23, BxPC-3 cells
The experiment in a line: flow cytometry, binding to Huh-7 cells.

Assay [12] concerns the target T9, human GPC3 on cells. The experiment in a line: cell-based or functional assay.
Assay [13] has as its target T9, human GPC3 on cells. The experiment in a line: flow cytometry, binding to CHO-Flp-In cells overexpressing human GPC3.
The target of assay [14] is T10, Human T cell receptor on human primary T cells (human, UniProt P01848 1-140; P01850 1-176).
T10 construct: whole, on cells
T10 TCR alpha (looked up): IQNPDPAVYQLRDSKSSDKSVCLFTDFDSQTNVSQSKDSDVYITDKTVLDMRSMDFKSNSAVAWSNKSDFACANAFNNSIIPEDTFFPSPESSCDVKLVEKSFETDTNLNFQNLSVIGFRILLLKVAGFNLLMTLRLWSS
T10 TCR beta (looked up): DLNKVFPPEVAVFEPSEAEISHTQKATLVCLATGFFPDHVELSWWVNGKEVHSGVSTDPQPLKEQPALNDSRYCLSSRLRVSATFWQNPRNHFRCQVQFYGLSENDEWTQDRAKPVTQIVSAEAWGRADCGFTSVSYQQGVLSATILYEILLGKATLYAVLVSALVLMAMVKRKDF
The experiment in a line: flow cytometry, human primary T cells.

Assay [15] concerns the target T11, Cynomolgus TCR(AEA41865/AEA41866)-zipper protein (cynomolgus monkey).
T11 construct: also called cyTCR-zipper protein; cynoTCR zipper
T11 TCR alpha: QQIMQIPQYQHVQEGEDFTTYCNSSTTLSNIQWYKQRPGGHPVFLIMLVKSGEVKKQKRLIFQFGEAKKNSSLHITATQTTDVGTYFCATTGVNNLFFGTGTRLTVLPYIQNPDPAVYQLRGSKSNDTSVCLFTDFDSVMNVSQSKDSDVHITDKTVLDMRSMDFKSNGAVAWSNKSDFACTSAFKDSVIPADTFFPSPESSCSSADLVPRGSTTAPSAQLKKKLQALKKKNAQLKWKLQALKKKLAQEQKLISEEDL
T11 TCR beta: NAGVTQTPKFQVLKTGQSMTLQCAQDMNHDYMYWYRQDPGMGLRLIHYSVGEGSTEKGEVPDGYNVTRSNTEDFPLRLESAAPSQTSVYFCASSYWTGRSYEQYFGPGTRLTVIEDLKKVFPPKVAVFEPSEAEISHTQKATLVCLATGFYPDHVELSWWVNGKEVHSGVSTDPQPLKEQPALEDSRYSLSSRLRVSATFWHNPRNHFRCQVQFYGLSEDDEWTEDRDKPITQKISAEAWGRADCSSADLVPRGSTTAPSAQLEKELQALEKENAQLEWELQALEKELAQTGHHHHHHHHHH
The experiment in a line: table head: SPR ProteOn XPR36; text: BLI, Octet RED384, 25 C, immobilised TCR-zipper. On the procedure: Affinity constants (KD) were calculated applying a 1:1 interaction model using the ForteBio Data Analysis software.
In general terms: Biolayer interferometry detects binding as a change in optical thickness at a sensor tip.

The target of assay [16] is T10, Human T cell receptor on human primary …. The experiment in a line: flow cytometry, human primary T cells.

“And” between values parts separate entries of the source, which are not always exact repeats. Equal entries are not always repeated. Where two headings read alike, the source gives them in different places.

T1 sequence (P20138 18-364): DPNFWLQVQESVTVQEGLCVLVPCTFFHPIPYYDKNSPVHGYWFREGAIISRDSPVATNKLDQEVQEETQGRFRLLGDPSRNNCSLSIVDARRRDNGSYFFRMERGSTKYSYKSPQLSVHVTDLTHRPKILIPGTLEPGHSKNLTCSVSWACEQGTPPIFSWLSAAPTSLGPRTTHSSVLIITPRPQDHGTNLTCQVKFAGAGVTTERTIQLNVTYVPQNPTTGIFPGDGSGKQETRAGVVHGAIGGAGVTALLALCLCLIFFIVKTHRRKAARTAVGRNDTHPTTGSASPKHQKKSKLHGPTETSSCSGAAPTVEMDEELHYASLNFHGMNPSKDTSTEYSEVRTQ

B1: monovalent CD33 building block (SEQ ID NO: 463) (VHH)
VHH: EVQLVESGGGVVQPGGSLRLSCAASGGVFRLNSMGWFRQAPGKQRELVAIITSDGDTNYADSVKGRFTISRDQAKNTVYLQMNSLRPEDTALYYCQITYSTSSYSFPINTWGQGTLVTVSS
On to B1, for which the concentration for a half-maximal effect (EC50) is 6.2 nM and 5.5 nM and 7.7 nM in assay [1]; 5.7 nM and 12 nM in assay [2].

B2: A022600424 (other)
chain: DVQLVESGGGVVQPGGSLRLSCVASGYVHKINFYGWYRQAPGKEREKVAHISIGDQTDYADSAKGRFTISRDESKNTVYLQMNSLRPEDTAAYYCRALSRIWPYDYWGQGTLVTVSSGGGGSEVQLVESGGGVVQPGGSLRLSCAASGFTFSSFAMTWVRRPPGKGLEWVATITNKGVTSYADSVKGRFTISRDNAKNTLYLQMNSLRPEDTALYICANARRTGPRAPTDIGSYRGQGTLVTVSSGGGGSGGGSEVQLVESGGGVVQPGGSLRLSCAASGSIFRSVFSSSTMEWYRQAPGKKRELVARIAPGEGTYYGALYADSVKGRFTISRDNAKNTVYLQMNSLRPEDTALYYCASGVAWGQGTLVTVSSGGGGSGGGSEVQLVESGGGVVQPGGSLRLSCAASGFTFRSFGMSWVRQAPGKGPEWVSSISGSGSDTLYADSVKGRFTISRDNSKNTLYLQMNSLRPEDTALYYCTIGGSLSRSSQGTLVTVSSA
notes: also called T017000680-5GS-A022600351-9GS-A022600314-9GS-ALB23002-A
For the molecule B2, the IC50 was found to be 250 nM in [3] and 170 nM in [9]. The values for the Kd in assay [4], in assay [5] and in assay [6] were 5.4 nM, less than 0.0059 nM and less than 0.0056 nM, respectively. Moreover, in assay [7], the “Primary cy T cells IC50 (M), xCELLigence TDC assay on Huh-7, E:T 15:1, 60 h” value stood at 2.29e-10 M. In addition, in [8], the “Primary hu T cells IC50 (M), xCELLigence TDC assay on Huh-7, E:T 15:1, 60 h” value was determined as 7.59e-11 M. For the same molecule, the EC50 in assay [10] worked out at 1.11 nM; in assay [11], 1.25 nM; in assay [13], 1.82 nM. Moreover, the “IC50 (M) BxPC-3, xCELLigence human TDC assay, E:T 15:1, 60 h” value in assay [12] is more than 1e-07 M. Also, in [12], the “IC50 (M) HepG2, xCELLigence human TDC assay, E:T 15:1, 60 h” value was found to be 1.15e-10 M. For the same molecule, the “IC50 (M) Huh-7, xCELLigence human TDC assay, E:T 15:1, 60 h” value in assay [12] stood at 1.16e-10 M. In [12], the “IC50 (M) NCI-H23, xCELLigence human TDC assay, E:T 15:1, 60 h” value is more than 1e-07 M. Moreover, the “IC50 (M) NCI-H661, xCELLigence human TDC assay, E:T 15:1, 60 h” value in [12] stood at 1.14e-10 M.

B3: T0170056G05 (VHH, not shown: small tags and cut ends)
VHH: EVQLVESGGGLVQPGGSLRLSCVASGDVHKINFLGWYRQAPGKEREKVAHISIGDQTDYADSAKGRFTISRDESKNMVYLQMNSLKPEDTAVYFCRAFSRIYPYDYWGQGTLVTVSS
notes: also called T01700056G05; parental anti-TCR ISVD
On to B3, for which the results for the EC50 in assay [14] and in [16] were 83 nM and 140 nM, respectively. In [15], this molecule showed a Kd of 170 nM.

As a reminder, the EC50 is the concentration giving half of the maximal effect. The IC50 is the concentration needed to halve the response being measured. By Kd is commonly meant the equilibrium constant for the complex coming apart.
